The values that follow come from patent publication US20200199231A1.

In the experiment the target is human CD20 (human) (UniProt P11836). The experiment in a line: flow cytometry on Daudi cells (CD20-positive, CD3-negative); PE-conjugated goat anti-human IgG F(ab')2; geomean (PE). (Flow cytometry measures light scatter and fluorescence of single cells or particles in a stream.)
human CD20 (human), sequence (P11836 whole entry): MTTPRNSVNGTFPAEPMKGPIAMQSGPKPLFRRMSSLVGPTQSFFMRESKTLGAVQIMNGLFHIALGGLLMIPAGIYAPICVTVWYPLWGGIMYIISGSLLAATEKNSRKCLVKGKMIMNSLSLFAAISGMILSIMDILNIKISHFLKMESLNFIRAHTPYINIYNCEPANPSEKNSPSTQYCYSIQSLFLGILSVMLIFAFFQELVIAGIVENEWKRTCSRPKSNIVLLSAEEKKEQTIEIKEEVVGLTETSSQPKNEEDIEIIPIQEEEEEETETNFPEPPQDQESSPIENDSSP

IgG1-GA101 (antibody) gave an EC50 (read off the curve) of 0.6 µg/mL. The result for IgG1-RTX (antibody) reads 0.7 µg/mL.

By EC50 (read off the curve) is commonly meant the concentration needed to bring the measured effect to its halfway point. Low values mean higher potency in that assay, high ones lower potency in that assay.
